For assay [1], the target named is T1, human OX40 on cells (human, UniProt P43489 29-277).
T1 sequence: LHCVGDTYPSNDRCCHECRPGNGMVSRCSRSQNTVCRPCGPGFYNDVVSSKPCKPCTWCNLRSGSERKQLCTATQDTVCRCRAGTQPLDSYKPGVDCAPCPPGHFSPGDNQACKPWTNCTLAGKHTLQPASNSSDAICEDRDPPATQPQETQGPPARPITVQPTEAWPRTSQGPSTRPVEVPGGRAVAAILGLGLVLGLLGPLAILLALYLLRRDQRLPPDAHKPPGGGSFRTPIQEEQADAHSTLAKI
Kind of assay: cell-based or functional assay.

The target of assay [2] is T2, cynomolgus OX40 on cells (cynomolgus, UniProt P43489 29-277 (human entry)).
T2 construct: also called cynoOX40-CHO
T2 chain: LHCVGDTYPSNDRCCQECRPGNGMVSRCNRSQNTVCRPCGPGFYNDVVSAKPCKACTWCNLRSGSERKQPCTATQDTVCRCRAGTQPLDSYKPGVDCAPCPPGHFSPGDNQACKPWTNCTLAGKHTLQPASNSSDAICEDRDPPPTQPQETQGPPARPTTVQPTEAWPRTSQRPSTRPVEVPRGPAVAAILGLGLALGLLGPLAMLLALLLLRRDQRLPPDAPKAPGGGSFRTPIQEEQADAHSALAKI
Kind of assay: FACS, activated cyno T cells; mean ± SD, n=4. The method, then: (§1) Briefly, cells were activated for several days before the binding assay in order to induce OX40 expression. Total leukocytes were isolated from cynomolgus macaque peripheral blood by lysis of red blood cells using an ammonium chloride buffer. The leukocytes were then cultured for four to five days with in flasks pre-coated with anti-human CD3 plus anti-human CD28 antibodies that cross-react with cynomolgus macaque, in the presence of recombinant human IL-2, in order to expand and activate T cells. On the day of the assay, the cells were harvested and stained with a titration of each anti-OX40 antibody. Bound antibodies were detected with a fluorescently conjugated anti-human IgG polyclonal secondary antibody, and the cells were co-stained for CD4 and CD25 to detect activated CD4 T cells. The fluorescence intensity of the staining was measured using a FACSCanto II flow cytometer (Becton Dickinson). The geometric mean fluorescence intensity (GMFI) or median fluorescence intensity (MedFI) of anti-OX40 antibody staining was calculated for the CD4+CD25+ population (FACSDiva software). Dose-response curves were generated and EC50s for antibody binding were calculated using GraphPad Prism software.
On the technique in general: Flow cytometry measures light scatter and fluorescence of single cells or particles in a stream.

Assay [3] deals with T3, his-tagged soluble human OX40 (huOX40-6xhis) (human, UniProt P43489 29-214).
T3 construct: made in-house; also called Human-OX40-6XHIS; hOX40; not shown: hexahistidine tag
T3 sequence: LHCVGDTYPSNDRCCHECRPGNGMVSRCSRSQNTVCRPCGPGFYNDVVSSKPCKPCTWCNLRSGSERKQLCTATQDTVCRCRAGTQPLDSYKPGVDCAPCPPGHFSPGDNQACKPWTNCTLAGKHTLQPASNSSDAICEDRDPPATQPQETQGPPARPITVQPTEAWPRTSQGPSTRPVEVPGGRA
As to the kind of experiment: SPR, mAb captured on anti-human CH1, OX40-6XHIS analyte, 1:1 fit. The method, then: The affinity of several OX40 antibodies for soluble human OX40 was tested by SPR analysis. […] Human-OX40-6XHIS antigen in either a single concentration of 400 nM or a 1:2 serial dilution from 400 nM was used. Experiments were carried out on BIACORE® T200 or BIACORE® 3000 SPR instruments. Data was fit to a 1:1 model.
(In general: Surface plasmon resonance follows binding to a sensor surface in real time, without labels.)

The target of assay [4] is T1, human OX40 on cells. As to the kind of experiment: FACS, activated human T cells; mean ± SD, n=2. The method, then:
(§2) Cells were activated for several days before the binding assay in order to induce OX40 expression. Briefly, PBMCs were cultured for three or four days with magnetic beads coated with anti-human CD3 plus anti-human CD28, in the presence of recombinant human IL-2. On the day of the assay, the beads were removed and the cells stained with a titration of each anti-OX40 antibody. Bound antibodies were detected with a fluorescently conjugated anti-human IgG polyclonal secondary antibody, and the cells were co-stained for CD4 and CD25 to detect activated CD4 T cells. The fluorescence intensity of the staining was measured using a FACSCanto II flow cytometer (Becton Dickinson). The geometric mean fluorescence intensity (GMFI) or median fluorescence intensity (MedFI) of anti-OX40 antibody staining was calculated for the CD4+CD25+ population (FACSDiva software). EC₅₀s for antibody binding were calculated using GraphPad Prism software.

Assay [5] concerns the target T1, human OX40 on cells. As to the kind of experiment: FACS competition on HT1080-hOX40 cells against APC-OX40.1 (FL2 MFI); the table gives no unit, axis 'Ab conc nM'; NOTE: the curve of this antibody is flat at about 18000 (no inhibition), the printed fit value has no meaning as a potency. As for the experimental part: (§3) This experiment was performed to test the cross-blocking properties of various anti-OX40 antibodies to assess binding specificities. […] Cells were washed and if necessary further incubated in the presence of streptavidin-APC conjugate under the same conditions. After the final wash, cells were analyzed on a FACSCanto flow cytometer (BD Bioscience, San Jose, Calif.). Mean fluorescence intensity (MFI) signal was proportional to bound conjugated antibody.

The target of assay [6] is T1, human OX40 on cells. Kind of assay: FACS competition on HT1080-hOX40 cells against APC-OX40.1 (FL2 MFI); the table gives no unit, axis 'Ab conc nM'. As for the experimental part: as §3
For assay [7], the target named is T1, human OX40 on cells. Kind of assay: FACS, blocking of OX40L-His (0.2 µg/mL) binding to hOX40-293 cells. As for the experimental part:
Briefly, 293 cells stably transfected with human OX40 were first pre-incubated with varying concentrations of anti-OX40 antibodies. […] The fluorescence intensity of the staining was measured using a FACSCanto II flow cytometer (Becton Dickinson).

Assay [8] has as its target T1, human OX40 on cells. Kind of assay: FACS, activated human T cells; mean ± SD, n=3. The method, then: as §2
The target of assay [9] is T1, human OX40 on cells. As to the kind of experiment: FACS competition on hOX40-293 cells against biotin-OX40.5 (spike biotOX.5 @ 0.4 ug/mL, streptavidin-APC); FL4-MFI falls from about 8700 to about 4100; the table gives no unit, axis in nM. As for the experimental part: as §3
Assay [10] deals with T1, human OX40 on cells. Kind of assay: cell-based or functional assay. The source holds these as a separate data set.
For assay [11], the target named is T2, cynomolgus OX40 on cells. As to the kind of experiment: FACS, activated primary cynomolgus macaque CD4+/CD25+ T cells, purified recombinant antibody, fluorescent anti-human IgG secondary (APC GMFI). As for the experimental part: as §1
The same experiment was performed with anti-OX40 antibodies with variable region substitutions.

Assay [12] concerns the target T1, human OX40 on cells. As to the kind of experiment: FACS, activated primary human CD4+/CD25+ T cells, purified recombinant antibody, fluorescent anti-human IgG secondary (APC GMFI). As for the experimental part: as §2
Assay [13] deals with T2, cynomolgus OX40 on cells. As to the kind of experiment: FACS, activated cyno T cells; mean ± SD, n=3. As for the experimental part:
as §1

Numbering of substitutions follows the chain as printed.

B1: 6E1 (antibody, V domains shown)
VH: QVQLVESGGGVVQPGRSLRLSCAASGFTFSSFAMHWVRQAPGKGLEWVTVISYDGSIKYYTDSVKGRFTFSRDNSKNTLYLQMNSLRAEDTAVYYCTRDGNYGSARYFQHWGQGTLVTVSS
VL: EIVLTQSPATLSLSPGERATLSCRASQSVSSYLAWYQQKPGQAPRLLIYDASNRATGIPARFSGSGSGTDFTLTISSLEPEDFAVYYCQQRSNWPYTFGQGTKLEIK
notes: also called 6E1.A12.A2; 6E1.A12
One may read the EC50 as the concentration at which the effect is half-maximal. As usually defined, the Kd is a measure of binding affinity in units of concentration. By koff is commonly meant the rate constant with which the complex falls apart. High values mean a short-lived complex, low ones a long-lived complex. One may read the kon as a measure of how fast the partners come together. For orientation: IC50 means the concentration needed to halve the response being measured. The low end stands for greater potency, the high end for weaker potency. Consider B1, for which the “Proliferation EC50, CD4 T cells + CHO-CD3-CD32A” value (shortened to “Proliferation EC50”) in assay [1] amounted to 0.014 nM. This molecule also gave an EC50 in [2] of 0.77 nM. Besides, in assay [3], the dissociation constant (Kd) came out at 11 nM, the koff came out at 0.00141 s⁻¹ and the kon is 128000 M⁻¹ s⁻¹. Besides, in assay [4], the EC50 came out at 0.97 nM. The molecule also returned an IC50 in assay [5] of roughly 0.00249 nM.

B2: 8B11 (antibody, V domains shown)
VH: EIQLVQSGGGLVHPGGSLRLSCAGSGFTFSSDAMYWVRQAPGKGLEWVSAIGIGGDTYYTDSVMGRFTISRDNAKNSLYLQMNSLRAEDMAVYYCARLGMGYYFDYWGQGTLVTVSS
VL: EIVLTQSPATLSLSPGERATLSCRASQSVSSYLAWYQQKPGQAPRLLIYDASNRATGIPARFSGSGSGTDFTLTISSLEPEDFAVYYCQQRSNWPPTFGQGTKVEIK
notes: also called 8B11.H9.C1; 8B11.H9
B2 returned an IC50 in assay [6] of 1.41 nM. The “Proliferation EC50” value in assay [1] was 0.022 nM. In assay [7], this molecule gave a 50% effective concentration (EC50) of 0.45 nM. The EC50 in [2] amounted to 0.2 nM. In assay [3], this molecule returned a Kd of 10.5 nM, a dissociation rate constant (koff) of 0.00051 s⁻¹ and a kon of 48000 M⁻¹ s⁻¹. Also, the EC50 in assay [4] is 0.14 nM.

B3: 23H3 (antibody, V domains shown)
VH: B2 VH with I2V, S31N, D32Y, Y58F, M64K, Y79S, L98M, M100T, Y103F
VL: B1 VL with Y96L, Q100P, L104V, E105D
notes: also called 23H3.C6
As to B3, the “Proliferation EC50” value in [1] stood at 0.028 nM. The EC50 came out at 0.15 nM in [8], 0.38 nM in [7], 0.18 nM in assay [2] and 3.68 nM in [9]. The molecule further showed a Kd in [3] of 3.6 nM. In addition, the off-rate (koff) in [3] was determined as 0.000395 s⁻¹. In assay [3], the on-rate constant (kon) came to 110000 M⁻¹ s⁻¹.

B4: OX40.18 (antibody, human IgG1, kappa, V domains shown)
VH: QVQLVQSGAEVKKPGASVKVSCKASGYTFTSYDVNWVRQATGQGLEWMGWMNPNSGNTGYAPKFQGRVTMTRDTSISTAYMELSSLRSEDTAVYYCARIYSSSYNWFDYWGQGTLVTVSS
VL: EIVLTQSPATLSLSPGERATLSCRASQSVSSYLAWYQQKPGQAPRLLIYDASNRATGIPARFSGSGSGTDFTLTISSLEPEDFAVYYCQQRSNWPLTFGGGTKVEIKR
notes: g1f
On to B4, for which, in [1], the “IFNγ EC50, CD4 T cells + CHO-CD3-CD32A” value worked out at 0.49 nM and the “Proliferation EC50” value was 0.23 nM. For the same molecule, in [10], the “IL-2 EC50, SEB PBMC, donor BMS-001” value was roughly 84.8 nM; the “IL-2 EC50, SEB PBMC, donor BMS-004” value was 2.43 nM; the “IL-2 EC50, SEB PBMC, donor BMS-009” value was found to be 3.21 nM; the “IL-2 EC50, SEB PBMC, donor BMS-012” value was roughly 1.67 nM. In [10], the “IL-2 EC50, SEB PBMC, donor BMS-015” value was greater than 100 nM; the “IL-2 EC50, SEB PBMC, donor BMS-016” value is greater than 100 nM; the “IL-2 EC50, SEB PBMC, donor WB10024” value is roughly 3.17 nM; the “IL-2 EC50, SEB PBMC, donor WB10025” value is roughly 1.14 nM. Further, in assay [10], the “IL-2 EC50, SEB PBMC, donor WB10026” value amounted to 3.02 nM; the “IL-2 EC50, SEB PBMC, donor WB10027” value is roughly 3.27 nM; the “IL-2 EC50, SEB PBMC, donor WB10137” value was greater than 100 nM; the “IL-2 Mean EC50, SEB PBMC, all donors” value was 2.89 nM. Besides, in assay [4], a half-maximal effect (EC50) was put at 3.15 nM.

B5: OX40.17 (antibody, human IgG1, kappa, V domains shown)
VH: EVQLVESGGGLVQPGGSLRLSCAASGFTFSSYDMHWVRQTTGKGLEWVSVIGTAGDTYYPGSVKGRFTISRENAKNSLYLQMNSLRAGDTAVYYCARGGMGNYFDYWGQGTLVTVSS
VL: B4 VL
In general, EC50 (read off the curve) refers to the concentration at which the effect is half-maximal. Turning to B5, in assay [11], the “EC50 (read off the curve)” value was roughly 0.4 nM. In [1], the “IFNγ EC50, CD4 T cells + CHO-CD3-CD32A” value turned out to be 0.044 nM and the “Proliferation EC50” value amounted to 0.009 nM. This molecule registered a half-maximal effective concentration (EC50) in [8] of 0.26 nM. In addition, the “EC50 (read off the curve)” value in assay [12] is roughly 0.2 nM. In assay [13], the EC50 turned out to be 0.52 nM. In addition, in [10], the “IL-2 EC50, SEB PBMC, donor BMS-001” value was determined as 0.41 nM; the “IL-2 EC50, SEB PBMC, donor BMS-004” value was found to be 1.03 nM; the “IL-2 EC50, SEB PBMC, donor BMS-009” value amounted to 0.97 nM; the “IL-2 EC50, SEB PBMC, donor BMS-012” value worked out at 1.74 nM. Moreover, in [10], the “IL-2 EC50, SEB PBMC, donor BMS-015” value was found to be 1.16 nM; the “IL-2 EC50, SEB PBMC, donor BMS-016” value is 1.4 nM; the “IL-2 EC50, SEB PBMC, donor WB10024” value was found to be 1.06 nM; the “IL-2 EC50, SEB PBMC, donor WB10025” value was 1.35 nM. For the same molecule, in [10], the “IL-2 EC50, SEB PBMC, donor WB10026” value is 1.68 nM; the “IL-2 EC50, SEB PBMC, donor WB10027” value came to 1.15 nM; the “IL-2 EC50, SEB PBMC, donor WB10137” value came out at 0.92 nM; the “IL-2 Mean EC50, SEB PBMC, all donors” value was determined as 1.17 nM.

The values are drawn from patent US20200399385A1 (Bristol-Myers Squibb, published 2020).
